Biological target: the molecule itself
Assay: SEC; purified tetramers on Superose 6 Increase 10/300 GL, 50 mM Tris, 150 mM NaCl, pH 7.4, 5 mM EDTA, 0.5 ml/min

Protein	stoichiometry N
C1r p.S654A (enzymatically inactive proenzyme C1r 'WT') (enzyme, human, UniProt P00736 18-705, looked up, also called C1r WT with additional p.S654A mutation; source: 293-F cells co-transfected with C1s, purified as part of the tetramer as described (19)) SIPIPQKLFGEVTSPLFPKPYPNNFETTTVITVPTGYRVKLVFQQFDLEPSEGCFYDYVKISADKKSLGRFCGQLGSPLGNPPGKKEFMSQGNKMLLTFHTDFSNEENGTIMFYKGFLAYYQAVDLDECASRSKSGEEDPQPQCQHLCHNYVGGYFCSCRPGYELQEDTHSCQAECSSELYTEASGYISSLEYPRSYPPDLRCNYSIRVERGLTLHLKFLEPFDIDDHQQVHCPYDQLQIYANGKNIGEFCGKQRPPDLDTSSNAVDLLFFTDESGDSRGWKLRYTTEIIKCPQPKTLDEFTIIQNLQPQYQFRDYFIATCKQGYQLIEGNQVLHSFTAVCQDDGTWHRAMPRCKIKDCGQPRNLPNGDFRYTTTMGVNTYKARIQYYCHEPYYKMQTRAGSRESEQGVYTCTAQGIWKNEQKGEKIPRCLPVCGKPVNPVEQRQRIIGGQKAKMGNFPWQVFTNIHGRGGGALLGDRWILTAAHTLYPKEHEAQSNASLDVFLGHTNVEELMKLGNHPIRRVSVHPDYRQDESYNFEGDIALLELENSVTLGPNLLPICLPDNDTFYDLGLMGYVSGFGVMEEKIAHDLRFVRLPVANPQACENWLRGKNRMDVFSQNMFCAGHPSLKQDACQGDAGGVFAVRDPNTDRWVATGIVSWGIGCSRGYGFYTKVLNYVDWIKKEMEEED	2
C1r p.(D290G) with additional p.S654A mutation (enzyme, human, UniProt P00736 18-705, looked up, also called c.869A>G; source: 293-F cells co-transfected with C1s, purified as part of the tetramer as described (19)) SIPIPQKLFGEVTSPLFPKPYPNNFETTTVITVPTGYRVKLVFQQFDLEPSEGCFYDYVKISADKKSLGRFCGQLGSPLGNPPGKKEFMSQGNKMLLTFHTDFSNEENGTIMFYKGFLAYYQAVDLDECASRSKSGEEDPQPQCQHLCHNYVGGYFCSCRPGYELQEDTHSCQAECSSELYTEASGYISSLEYPRSYPPDLRCNYSIRVERGLTLHLKFLEPFDIDDHQQVHCPYDQLQIYANGKNIGEFCGKQRPPDLDTSSNAVDLLFFTGESGDSRGWKLRYTTEIIKCPQPKTLDEFTIIQNLQPQYQFRDYFIATCKQGYQLIEGNQVLHSFTAVCQDDGTWHRAMPRCKIKDCGQPRNLPNGDFRYTTTMGVNTYKARIQYYCHEPYYKMQTRAGSRESEQGVYTCTAQGIWKNEQKGEKIPRCLPVCGKPVNPVEQRQRIIGGQKAKMGNFPWQVFTNIHGRGGGALLGDRWILTAAHTLYPKEHEAQSNASLDVFLGHTNVEELMKLGNHPIRRVSVHPDYRQDESYNFEGDIALLELENSVTLGPNLLPICLPDNDTFYDLGLMGYVSGFGVMEEKIAHDLRFVRLPVANPQACENWLRGKNRMDVFSQNMFCAGHPSLKQDACQGDAGGVFAVRDPNTDRWVATGIVSWGIGCSRGYGFYTKVLNYVDWIKKEMEEED	2
